Key:
[1] = biological target: T1, human CTLA-4-Fc (Chimerigen) (human, UniProt P16410 36-161; P01857 99-330 = IgG part, limits assumed); test: ELISA towards hCTLA-4-Fc
T1 construct: extracellular domain;domain: Fc portion; Bought protein; also called hCTLA-4-Fc; huCTLA-4-Ig
Target sequence in this assay (P16410 other isoform, or with tags, fused parts or gaps mutant limits assumed): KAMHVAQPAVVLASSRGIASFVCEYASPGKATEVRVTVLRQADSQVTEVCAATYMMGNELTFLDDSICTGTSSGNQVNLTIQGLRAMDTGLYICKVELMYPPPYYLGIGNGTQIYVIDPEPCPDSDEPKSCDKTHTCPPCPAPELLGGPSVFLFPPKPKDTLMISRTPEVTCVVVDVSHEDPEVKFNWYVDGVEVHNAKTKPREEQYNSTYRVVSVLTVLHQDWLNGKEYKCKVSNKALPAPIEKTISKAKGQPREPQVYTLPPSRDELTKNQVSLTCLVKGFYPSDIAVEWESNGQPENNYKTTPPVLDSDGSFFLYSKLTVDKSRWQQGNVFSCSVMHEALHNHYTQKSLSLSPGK

[2] = biological target: T1, human CTLA-4-Fc (Chimerigen); test: competition FACS: 2.5 nM human CTLA-4 Fc pre-incubated with the antagonist, then staining of Raji cells; % inhibition of CTLA-4 Fc binding; blocked ligands B7.1 and B7.2
[3] = biological target: T1, human CTLA-4-Fc (Chimerigen); test: SPR-Affinity towards hCTLA-4-Fc
Target sequence in this assay (P16410 other isoform, or with tags, fused parts or gaps mutant limits assumed): as above

[4] = biological target: T1, human CTLA-4-Fc (Chimerigen); test: competition FACS: HuCTLA4-Ig 10 ug/ml pre-incubated with the antagonist, then staining of P815 cells transfected with human B7.2; blocked ligand B7.2
mCTLA-4-Fc (R&D Systems) [5] = biological target: T2, mCTLA-4-Fc (R&D Systems) (mouse, UniProt P09793 36-162); test: SPR, Fc fusion captured via anti-human IgG Fc
[6] = biological target: T1, human CTLA-4-Fc (Chimerigen); test: SPR, Fc fusion captured via anti-human IgG Fc
Target sequence in this assay (P16410 other isoform, or with tags, fused parts or gaps mutant limits assumed): as above

mCTLA-4-Fc (R&D Systems) [7] = biological target: T2, mCTLA-4-Fc (R&D Systems); test: SPR; KD listed beside Tm
[8] = biological target: T1, human CTLA-4-Fc (Chimerigen); test: SPR; KD listed beside Tm
Target sequence in this assay (P16410 other isoform, or with tags, fused parts or gaps mutant limits assumed): as above

mCTLA-4-Fc (R&D Systems) [9] = biological target: T2, mCTLA-4-Fc (R&D Systems); test: SPR as in Example 9
[10] = biological target: T1, human CTLA-4-Fc (Chimerigen); test: SPR as in Example 9
Target sequence in this assay (P16410 other isoform, or with tags, fused parts or gaps mutant limits assumed): as above

[11] = biological target: T3, mouse CTLA-4 Fc (Chimerigen) (mouse, UniProt P09793 36-161); test: FACS competition: inhibition of 2.5 nM mCTLA-4 Fc binding to Raji cells (B7.1, B7.2)
T3 construct: also called muCTLA-4-Ig; muCTLA-4-Fc; not shown: Fc part not described; detected with anti-mouse IgG-phycoerythrin

[12] = biological target: T1, human CTLA-4-Fc (Chimerigen); test: FACS competition: inhibition of 2.5 nM hCTLA-4 Fc binding to Raji cells (B7.1, B7.2)
[13] = biological target: T1, human CTLA-4-Fc (Chimerigen); test: SPR-Affinity of the monomer towards hCTLA-4-Fc
Target sequence in this assay (P16410 other isoform, or with tags, fused parts or gaps mutant limits assumed): as above

[14] = biological target: T1, human CTLA-4-Fc (Chimerigen); test: SPR-Affinity of the PEGylated monomer towards hCTLA-4-Fc
[15] = biological target: T1, human CTLA-4-Fc (Chimerigen); test: Affinity-ELISA of the PEGylated monomer towards hCTLA-4-Fc
[16] = biological target: T4, human CTLA-4 on the cell surface (transfected CHO and A431 cells; CD152-expressing cells of human tonsil) (human, UniProt P16410 36-223); test: indirect immunoperoxidase staining of cryosections; column Negative Control Antibody [Isotype-matched hNGALwt_58]
T4 construct: whole, on cells; also called CHO-hCTLA-4; CHO::hCTLA-4
T4 sequence (looked up): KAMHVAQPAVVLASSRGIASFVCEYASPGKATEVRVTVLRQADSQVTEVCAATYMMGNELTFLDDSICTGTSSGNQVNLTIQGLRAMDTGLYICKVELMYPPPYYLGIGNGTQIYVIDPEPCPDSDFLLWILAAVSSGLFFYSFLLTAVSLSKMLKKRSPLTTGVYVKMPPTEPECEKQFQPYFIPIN

T2 sequence (P09793 whole entry, the tested form may be a part): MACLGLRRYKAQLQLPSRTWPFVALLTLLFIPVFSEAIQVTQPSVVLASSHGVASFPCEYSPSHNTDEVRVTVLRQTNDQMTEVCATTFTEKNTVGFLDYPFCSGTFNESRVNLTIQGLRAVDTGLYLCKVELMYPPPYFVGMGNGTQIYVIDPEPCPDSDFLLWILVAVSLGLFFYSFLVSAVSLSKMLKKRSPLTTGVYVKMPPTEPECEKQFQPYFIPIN

B1: S140.4-O10-ABD (fusion with the albumin binding domain of streptococcal protein G) (designed binder)
chain: QDSTSDLIPAPPLSKVPLQQNFQDNQFHGKWYVVGLAGNRILRDDQHPMNMYATIYELKEDKSYNVTSVISSHKKCEYTIATFVPGSQPGEFTLGNIKSYGDKTSYLVRVVSTDYNQYAVVFFKLAEDNAEFFAITIYGRTKELASELKENFIRFSKSLGLPENHIVFPVPIDQCIDGSGGAVDANSLAEAKVLANRELDKYGVSDYYKNLINNAKTVEGVKALIDEILAALPSAWSHPQFEK
notes: Original linker of protein G between mutein and ABD; also called Onc I-004
ELISA affinities [1]: 3.3 nM
IC50 (read off the curve) [2]: ~4 nM
Kd [3]: 8.9 nM

B2: hNGAL mutein S94.7-Q13 (designed binder)
chain: QDSTSDLIPAPPLSKVPLQQNFQDNQFHGKWYVVGLAGNRILRDDQHPMNMYATIYELKEDKSYNVTSVIFPHKKCEYTIATFVPGSQPGEFTLGNIKSYGDKTSYLVRVVSTNYNQHATVFFKLAEDNAEFFAITIYGRTKELASELKENFIRFSKSLGLPENHIVFPVPIDQCIDGSAWSHPQF
notes: also called CTLA-4-Q13
IC50 (read off the curve) [4]: ~5 µg/mL
Kd (mCTLA-4-Fc (R&D Systems) [5]): 39.5 nM
koff (mCTLA-4-Fc (R&D Systems) [5]): 0.00017 s⁻¹
kon (mCTLA-4-Fc (R&D Systems) [5]): 4300 M⁻¹ s⁻¹
Kd [6]: 11.8 nM
koff [6]: 7.1e-05 s⁻¹
kon [6]: 6000 M⁻¹ s⁻¹

B3: hNGAL mutein S140.4-O10 (designed binder)
chain: QDSTSDLIPAPPLSKVPLQQNFQDNQFHGKWYVVGLAGNRILRDDQHPMNMYATIYELKEDKSYNVTSVISSHKKCEYTIATFVPGSQPGEFTLGNIKSYGDKTSYLVRVVSTDYNQYAVVFFKLAEDNAEFFAITIYGRTKELASELKENFIRFSKSLGLPENHIVFPVPIDQCIDG
notes: also called Onc I-002
Kd (mCTLA-4-Fc (R&D Systems) [7]): 40.8 nM
Kd [8]: 8.3 nM
ELISA affinities [1]: 3.8 nM
Kd (mCTLA-4-Fc (R&D Systems) [9]): 40.8 nM
koff (mCTLA-4-Fc (R&D Systems) [9]): 0.00049 s⁻¹
kon (mCTLA-4-Fc (R&D Systems) [9]): 11900 M⁻¹ s⁻¹
Kd [10]: 8.3 nM
koff [10]: 0.000221 s⁻¹
kon [10]: 15300 M⁻¹ s⁻¹
IC50 (read off the curve) [2]: ~2 nM
Kd [3]: 3.7 nM

B4: hNGAL mutein S140.4-O10 without T7 tag (designed binder)
chain: QDSTSDLIPAPPLSKVPLQQNFQDNQFHGKWYVVGLAGNRILRDDQHPMNMYATIYELKEDKSYNVTSVISSHKKCEYTIATFVPGSQPGEFTLGNIKSYGDKTSYLVRVVSTDYNQYAVVFFKLAEDNAEFFAITIYGRTKELASELKENFIRFSKSLGLPENHIVFPVPIDQCIDG
notes: also called S140.4-O10 (-T7 tag); S140.4-O10(-T7)
IC50 [11]: 15.5 nM
Kd (mCTLA-4-Fc (R&D Systems) [9]): 15.3 nM
koff (mCTLA-4-Fc (R&D Systems) [9]): 0.000416 s⁻¹
kon (mCTLA-4-Fc (R&D Systems) [9]): 27200 M⁻¹ s⁻¹
Kd [10]: 3.9 nM
koff [10]: 0.000108 s⁻¹
kon [10]: 27700 M⁻¹ s⁻¹
IC50 [12]: 2.5 nM
Kd [13]: 3 nM

B5: hNGAL mutein S140.4-B16 (designed binder)
chain: QDSTSDLIPAPPLSKVPLQQNFQDNQFHGKWYVVGLAGNRILRDDQHPMNMYATIYELKEDKSYNVTSVIFPHKKCEYTIATFVPGSQPGEFTLSDIKSYGDKTSYLVRVVSTDYNQYAVVFFKLAEDNAEFFAITIYGRTKELASELKENFIRFSKSLGLPENHIVFPVPIDQCIDG
notes: tagged entry not tied to the name; not shown: N-terminal T7 detection tag from vector phNGAL37; C-terminal Strep-tag II from vector phNGAL37
Kd (mCTLA-4-Fc (R&D Systems) [7]): 112 nM
Kd [8]: 68 nM
Kd (mCTLA-4-Fc (R&D Systems) [9]): 112 nM
koff (mCTLA-4-Fc (R&D Systems) [9]): 0.00056 s⁻¹
kon (mCTLA-4-Fc (R&D Systems) [9]): 5000 M⁻¹ s⁻¹
Kd [10]: 68 nM
koff [10]: 0.000418 s⁻¹
kon [10]: 6160 M⁻¹ s⁻¹

B6: hNGAL mutein S140.3-P07 (designed binder)
chain: QDSTSDLIPAPPLSKVPLQQNFQDNQFHGKWYVVGLAGNRILRDDQHPMNMYATIYELKEDKSYNVTSVIFPHKKCEYTIATFVPGSQPGEFTLGNIKSYGDKTSYLVRVVSTDYNQYAVVFFKLAEDDAEFFAITIYGRTKELASELKENFIRFSKSLGLPENHIVFPVPIDQCIDG
notes: as for B5
Kd (mCTLA-4-Fc (R&D Systems) [7]): 98 nM
Kd [8]: 29 nM
Kd (mCTLA-4-Fc (R&D Systems) [9]): 98 nM
koff (mCTLA-4-Fc (R&D Systems) [9]): 0.000666 s⁻¹
kon (mCTLA-4-Fc (R&D Systems) [9]): 6800 M⁻¹ s⁻¹
Kd [10]: 29 nM
koff [10]: 0.000319 s⁻¹
kon [10]: 11000 M⁻¹ s⁻¹

B7: S140.4-O10-CH4 (fusion with the CH4 domain of the human IgE-Fc portion) (designed binder)
chain: QDSTSDLIPAPPLSKVPLQQNFQDNQFHGKWYVVGLAGNRILRDDQHPMNMYATIYELKEDKSYNVTSVISSHKKCEYTIATFVPGSQPGEFTLGNIKSYGDKTSYLVRVVSTDYNQYAVVFFKLAEDNAEFFAITIYGRTKELASELKENFIRFSKSLGLPENHIVFPVPIDQCIDGSTTKTSGPRAAPEVYAFATPEWPGSRDKRTLACLIQNFMPEDISVQWLHNEVQLPDARHSTTQPRKTKGSGFFVFSRLEVTRAEWEQKDEFICRAVHEAASPSQTVQRAVSVNPESSRSGGCSAWSHPQFEK
modifications: The molecule is a homodimer formed through the CH4 domain (the patent calls it the CH4-dimer). One copy of the chain is given.
notes: Fused for dimerization; CH4 domain between the mutein and the C-terminal Strep tag; also called CH4-dimer
Kd [3]: 0.8 nM

B8: S140.4-O10 site-directed PEGylated at Cys 87 with 20k PEG (designed binder)
chain: QDSTSDLIPAPPLSKVPLQQNFQDNQFHGKWYVVGLAGNRILRDDQHPMNMYATIYELKEDKSYNVTSVISSHKKCEYTIATFVPGCQPGEFTLGNIKSYGDKTSYLVRVVSTDYNQYAVVFFKLAEDNAEFFAITIYGRTKELASELKENFIRFSKSLGLPENHIVFPVPIDQCIDGSAWSHPQFEK
modifications: chain 1 pos 87: Cys carrying linear 20 kDa PEG-maleimide, written C
notes: also called O10_PEG(20k); S140.4-O10-PEG (20k)
ELISA affinities [1]: 3.6 nM
IC50 (read off the curve) [2]: ~4 nM
Kd [3]: 11 nM

B9: S140.4-O10 site-directed PEGylated at Cys 87 with 12k PEG (designed binder)
chain: QDSTSDLIPAPPLSKVPLQQNFQDNQFHGKWYVVGLAGNRILRDDQHPMNMYATIYELKEDKSYNVTSVISSHKKCEYTIATFVPGCQPGEFTLGNIKSYGDKTSYLVRVVSTDYNQYAVVFFKLAEDNAEFFAITIYGRTKELASELKENFIRFSKSLGLPENHIVFPVPIDQCIDGSAWSHPQFEK
modifications: chain 1 pos 87: Cys carrying linear 12k PEG-maleimide on its thiol, written C
notes: also called O10_PEG(12k); O10_S87C PEGylated monomer
Kd [14]: 26 nM
ELISA affinities [1]: 3.2 nM
ELISA-Affinity PEGylated Monomer [15]: 52 nM
Kd [3]: 20 nM

B10: S140.4-O10 site-directed PEGylated at Cys 87 with 30k PEG (designed binder)
chain: QDSTSDLIPAPPLSKVPLQQNFQDNQFHGKWYVVGLAGNRILRDDQHPMNMYATIYELKEDKSYNVTSVISSHKKCEYTIATFVPGCQPGEFTLGNIKSYGDKTSYLVRVVSTDYNQYAVVFFKLAEDNAEFFAITIYGRTKELASELKENFIRFSKSLGLPENHIVFPVPIDQCIDGSAWSHPQFEK
modifications: chain 1 pos 87: Cys carrying linear 30 kDa PEG-maleimide, written C
notes: also called O10_PEG(30k); S140.4-O10-PEG(30k)
ELISA affinities [1]: 3 nM

B11: control lipocalin hNGAL wt58 (other)
chain: QDSTSDLIPAPPLSKVPLQQNFQDNQFHGKWYVVGLAGNAILREDKDPQKMYATIYELKEDKSYNVTSVLFRKKKCDYWIRTFVPGSQPGEFTLGNIKSYPGLTSYLVRVVSTNYNQHAMVFFKKVSQNREYFKITIYGRTKELASELKENFIRFSKSLGLPENHIVFPVPIDQCIDG
notes: also called hNGAL-58; hNGAL58
binding result [16]: no binding (tested: 40 µg/mL)
